Data on one molecule can be found in PMC6308570.

For this series, the target named is thrombin (UniProt P00734;P00734 328-363;364-622). The series can be described thus: etched fiber Bragg grating biosensor (immobilized aptamer); thrombin 10, 20, 40, 80 nM; 5 mM MgCl2; Affinity buffer 50 mM Tris-HCl pH 7.4, 250 mM NaCl, 5 mM MgCl2; 2 h incubation; surface blocked with 1% BSA; temperature not stated.

Regarding TTTTTAGTCCGTGGTAGGGCAGGTTGGGGTGACT (ssDNA, 5' amino C6 (AmC6F)) [amine-modified thrombin binding aptamer (29-mer with T5 spacer)], the binding result is “binds”.
